What all share (assay type): biochemical
Data set [1] is described as follows: Carboxylate reductase activity assay, N7-acetyl-7-aminoheptanoate to N7-acetyl-7-aminoheptanal (NADPH consumption). Conditions: 2 mM N7-acetyl-7-aminoheptanoate, enhanced by gene product of sfp, room temperature, 20 min, against empty vector control, FIG. 12. The procedure:
The activity of each of the N-terminal His-tagged carboxylate reductases of SEQ ID NOs: 3, 6, and 7 (see Examples 4, and FIG. 7) for converting N7-acetyl-7-aminoheptanoate to N7-acetyl-7-aminoheptanal was assayed in triplicate in a buffer composed of a final concentration of 50 mM HEPES buffer (pH=7.5), 2 mM N7-acetyl-7-aminoheptanoate, 10 mM MgCl2, 1 mM ATP, and 1 mM NADPH. The assays were initiated by adding purified carboxylate reductase and phosphopantetheine transferase or the empty vector control to the assay buffer containing the N7-acetyl-7-aminoheptanoate then incubated at room temperature for 20 min. The consumption of NADPH was monitored by absorbance at 340 nm.

Data set [2] is described as follows: Carboxylate reductase activity assay, pimelate to pimelate semialdehyde (NADPH consumption). Conditions: 2 mM pimelate, enhanced by gene product of sfp, room temperature, 20 min, against empty vector control, FIG. 10. The procedure: A sequence encoding a HIS-tag was added to the genes from Segniliparus rugosus and Segniliparus rotundus that encode the carboxylate reductases of SEQ ID NOs: 4 and 7, respectively (see FIG. 7), such that N-terminal HIS tagged carboxylate reductases could be produced. Each of the modified genes was cloned into a pET Duet expression vector along with a sfp gene encoding a HIS-tagged phosphopantetheine transferase from Bacillus subtilis, both under the T7 promoter. Each expression vector was transformed into a BL21[DE3] E. coli host and the resulting recombinant E. coli strains were cultivated at 37° C. in a 250 mL shake flask culture containing 50 mL LB media and antibiotic selection pressure, with shaking at 230 rpm. Each culture was induced overnight at 37° C. using an auto-induction media.
The pellet from each induced shake flask culture was harvested via centrifugation. Each pellet was resuspended and lysed via sonication, and the cell debris was separated from the supernatant via centrifugation. […]
Enzyme activity assays (i.e., from pimelate to pimelate semialdehyde) were performed in triplicate in a buffer composed of a final concentration of 50 mM HEPES buffer (pH=7.5), 2 mM pimelate, 10 mM MgCl2, 1 mM ATP and 1 mM NADPH. […] The consumption of NADPH was monitored by absorbance at 340 nm.

Data set [3] in a line: Thioesterase enzyme activity assay, pimeloyl-CoA to pimelate (release of CoA, Ellman's reagent). Conditions: 667 μM pimeloyl-CoA, 0.8 μM enzyme, pH 7.4, 37° C., 20 min, relative to empty vector control, FIG. 8. On the procedure: A sequence encoding an N-terminal His tag was added to the tesB gene from Escherichia coli that encodes a thioesterase (SEQ ID NO 1, see FIG. 7), such that an N-terminal HIS tagged thioesterase could be produced. The modified tesB gene was cloned into a pET15b expression vector under control of the T7 promoter. The expression vector was transformed into a BL21[DE3] E. coli host. The resulting recombinant E. coli strain was cultivated at 37° C. in a 500 mL shake flask culture containing 50 mL Luria Broth (LB) media and antibiotic selection pressure, with shaking at 230 rpm. The culture was induced overnight at 17° C. using 0.5 mM IPTG.
The pellet from the induced shake flask culture was harvested via centrifugation. The pellet was resuspended and lysed in Y-Per™ solution (ThermoScientific, Rockford, Ill.). The cell debris was separated from the supernatant via centrifugation. […]
The enzyme activity assay was performed in triplicate in a buffer composed of 50 mM phosphate buffer (pH=7.4), 0.1 mM Ellman's reagent, and 667 μM of pimeloyl-CoA (as substrate). […] The release of Coenzyme A was monitored by absorbance at 412 nm. The absorbance associated with the substrate only control, which contained boiled enzyme, was subtracted from the active enzyme assay absorbance and compared to the empty vector control.
Background: DTNB colorimetry detects thiols as they appear.

3 molecules from patent publication US9580731B2, “Methods of producing 7-carbon chemicals via c1 carbon chain elongation associated with coenzyme B synthesis” (INVISTA North America S.á r.l., priority 2012, dated 2017) can be followed below.

B1: SEQ ID NO 6: Mycobacterium massiliense carboxylate reductase, Genbank Accession No. EIV11143.1 (protein)
chain: MTNETNPQQEQLSRRIESLRESDPQFRAAQPDPAVAEQVLRPGLHLSEAIAALMTGYAERPALGERARELVIDQDGRTTLRLLPRFDTTTYGELWSRTTSVAAAWHHDATHPVKAGDLVATLGFTSIDYTVLDLAIMILGGVAVPLQTSAPASQWTTILAEAEPNTLAVSIELIGAAMESVRATPSIKQVVVFDYTPEVDDQREAFEAASTQLAGTGIALETLDAVIARGAALPAAPLYAPSAGDDPLALLIYTSGSTGAPKGAMHSENIVRRWWIREDVMAGTENLPMIGLNFMPMSHIMGRGTLTSTLSTGGTGYFAASSDMSTLFEDMELIRPTALALVPRVCDMVFQRFQTEVDRRLASGDTASAEAVAAEVKADIRDNLFGGRVSAVMVGSAPLSEELGEFIESCFELNLTDGYGSTEAGMVFRDGIVQRPPVIDYKLVDVPELGYFSTDKPHPRGELLLKTDGMFLGYYKRPEVTASVFDADGFYMTGDIVAELAHDNIEIIDRRNNVLKLSQGEFVAVATLEAEYANSPVVHQIYVYGSSERSYLLAVVVPTPEAVAAAKGDAAALKTTIADSLQDIAKEIQLQSYEVPRDFIIEPQPFTQGNGLLTGIAKLARPNLKAHYGPRLEQMYAEIAEQQAAELRALHGVDPDKPALETVLKAAQALLGVSSAELAADAHFTDLGGDSLSALSFSDLLRDIFAVEVPVGVIVSAANDLGGVAKFVDEQRHSGGTRPTAETVHGAGHTEIRAADLTLDKFIDEATLHAAPSLPKAAGIPHTVLLTGSNGYLGHYLALEWLERLDKTDGKLIVIVRGKNAEAAYGRLEEAFDTGDTELLAHFRSLADKHLEVLAGDIGDPNLGLDADTWQRLADTVDVIVHPAALVNHVLPYNQLFGPNVVGTAEIIKLAITTKIKPVTYLSTVAVAAYVDPTTFDEESDIRLISAVRPIDDGYANGYGNAKWAGEVLLREAHDLCGLPVAVFRSDMILAHSRYTGQLNVPDQFTRLILSLIATGIAPGSFYQAQTTGERPLAHYDGLPGDFTAEAITTLGTQVPEGSEGFVTYDCVNPHADGISLDNFVDWLIEAGYPIARIDNYTEWFTRFDTAIRGLSEKQKQHSLLPLLHAFEQPSAAENHGVVPAKRFQHAVQAAGIGPVGQDGTTDIPHLSRRLIVKYAKDLEQLGLL
modifications: Mycobacterium massiliense
B1: in data set [1], the “carboxylate reductase activity for converting N7-acetyl-7-aminoheptanoate to N7-acetyl-7-aminoheptanal (NADPH consumption, absorbance at 340 nm)” value is on record as “accepted N7-acetyl-7-aminoheptanoate as substrate”.

B2: SEQ ID NO 4: Segniliparus rugosus carboxylate reductase, Genbank Accession No. EFV11917.1 (protein, listed as Segniliparus rugosus)
chain: MGDGEERAKRFFQRIGELSATDPQFAAAAPDPAVVEAVSDPSLSFTRYLDTLMRGYAERPALAHRVGAGYETISYGELWARVGAIAAAWQADGLAPGDFVATVGFTSPDYVAVDLAAARSGLVSVPLQAGASLAQLVGILEETEPKVLAASASSLEGAVACALAAPSVQRLVVFDLRGPDASESAADERRGALADAEEQLARAGRAVVVETLADLAARGEALPEAPLFEPAEGEDPLALLIYTSGSTGAPKGAMYSQRLVSQLWGRTPVVPGMPNISLHYMPLSHSYGRAVLAGALSAGGTAHFTANSDLSTLFEDIALARPTFLALVPRVCEMLFQESQRGQDVAELRERVLGGRLLVAVCGSAPLSPEMRAFMEEVLGFPLLDGYGSTEALGVMRNGIIQRPPVIDYKLVDVPELGYRTTDKPYPRGELCIRSTSLISGYYKRPEITAEVFDAQGYYKTGDVMAEIAPDHLVYVDRSKNVLKLSQGEFVAVAKLEAAYGTSPYVKQIFVYGNSERSFLLAVVVPNAEVLGARDQEEAKPLIAASLQKIAKEAGLQSYEVPRDFLIETEPFTTQNGLLSEVGKLLRPKLKARYGEALEARYDEIAHGQADELRALRDGAGQRPVVETVVRAAVAISGSEGAEVGPEANFADLGGDSLSALSLANLLHDVFEVEVPVRIIIGPTASLAGIAKHIEAERAGASAPTAASVHGAGATRIRASELTLEKFLPEDLLAAAKGLPAADQVRTVLLTGANGWLGRFLALEQLERLARSGQDGGKLICLVRGKDAAAARRRIEETLGTDPALAARFAELAEGRLEVVPGDVGEPKFGLDDAAWDRLAEEVDVIVHPAALVNHVLPYHQLFGPNVVGTAEIIRLAITAKRKPVTYLSTVAVAAGVEPSSFEEDGDIRAVVPERPLGDGYANGYGNSKWAGEVLLREAHELVGLPVAVFRSDMILAHTRYTGQLNVPDQFTRLVLSLLATGIAPKSFYQQGAAGERQRAHYDGIPVDFTAEAITTLGAEPSWFDGGAGFRSFDVFNPHHDGVGLDEFVDWLIEAGHPISRIDDHKEWFARFETAVRGLPEAQRQHSLLPLLRAYSFPHPPVDGSVYPTGKFQGAVKAAQVGSDHDVPHLGKALIVKYADDLKALGLL
Turning to B2, the “carboxylate reductase activity for converting pimelate to pimelate semialdehyde (NADPH consumption, absorbance at 340 nm)” value in data set [2] is “accepted pimelate as substrate”.

B3: gene product of tesB: Escherichia coli thioesterase encoded by tesB, GenBank Accession No. AAA24665.1 (protein, listed as Escherichia coli)
chain: MSQALKNLLTLLNLEKIEEGLFRGQSEDLGLRQVFGGQVVGQALYAAKETVPEERLVHSFHSYFLRPGDSKKPIIYDVETLRDGNSFSARRVAAIQNGKPIFYMTASFQAPEAGFEHQKTMPSAPAPDGLPSETQIAQSLAHLLPPVLKDKFICDRPLEVRPVEFHNPLKGHVAEPHRQVWIRANGSVPDDLRVHQYLLGYASDLNFLPVALQPHGIGFLEPGIQIATIDHSMWFHRPFNLNEWLLYSVESTSASSARGFVRGEFYTQDGVLVASTVQEGVMRNHN
Turning to B3, the “thioesterase activity for converting pimeloyl-CoA to pimelate (released CoA, absorbance at 412 nm)” value in data set [3] is “accepted pimeloyl-CoA as substrate”.
